Patent publication US20220177549A1
Residue numbers refer to the chain shown, from its start. In names and notes the source's numbering stands.

Key:
[1] = target: porcine FcRn complex (porcine) (UniProt Q07717); experiment: SPR (Biacore 8K+), pH 5.9, 25 C; FcRn captured by anti-His, IgG as analyte; 1:1 kinetic model
[2] = target: equine FcRn complex (equine) (UniProt F6XZ61); experiment: as above
[3] = target: porcine FcRn complex (porcine) (UniProt Q07717); experiment: SPR (Biacore 8K+), pH 5.9, 25 C; FcRn captured by anti-His, IgG as analyte; steady state affinity
[4] = target: ovine FcRn complex (ovine) (UniProt Q6QAT4); experiment: as above
ovine FcRn complex (ovine), sequence (main, as listed by the source, chain 1 of 2): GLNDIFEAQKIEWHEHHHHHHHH
ovine FcRn complex (ovine), sequence (Q6QAT4 other isoform, or with tags, fused parts or gaps, chain 2 of 2): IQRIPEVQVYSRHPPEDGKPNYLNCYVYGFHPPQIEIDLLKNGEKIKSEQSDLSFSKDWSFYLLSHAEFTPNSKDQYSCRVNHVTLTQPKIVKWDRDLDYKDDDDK

[5] = target: ovine FcRn complex (ovine) (UniProt Q6QAT4); experiment: SPR (Biacore 8K+), pH 5.9, 25 C; FcRn captured by anti-His, IgG as analyte; 1:1 kinetic model
[6] = target: bovine FcRn complex (bovine) (UniProt F6R592); experiment: as above
bovine FcRn complex (bovine), sequence (chain, as listed by the source, chain 1 of 2): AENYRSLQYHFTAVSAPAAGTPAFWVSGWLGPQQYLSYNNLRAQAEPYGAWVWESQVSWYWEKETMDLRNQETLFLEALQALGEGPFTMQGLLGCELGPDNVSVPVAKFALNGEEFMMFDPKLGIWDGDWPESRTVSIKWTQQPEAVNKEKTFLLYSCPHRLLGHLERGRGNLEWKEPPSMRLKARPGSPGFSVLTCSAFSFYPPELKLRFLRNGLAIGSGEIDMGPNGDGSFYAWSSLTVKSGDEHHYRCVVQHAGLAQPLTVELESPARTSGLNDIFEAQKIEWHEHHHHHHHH
bovine FcRn complex (bovine), sequence (P01888 other isoform, or with tags, fused parts or gaps, chain 2 of 2): as the sequence (Q6QAT4 other isoform, or with tags, fused parts or gaps, chain 2 of 2) above, with I4P, E6K, V7I, N82K, T87E, K90R counted along it

porcine FcRn complex (porcine), sequence (Q07717 other isoform, or with tags, fused parts or gaps, chain 2 of 2): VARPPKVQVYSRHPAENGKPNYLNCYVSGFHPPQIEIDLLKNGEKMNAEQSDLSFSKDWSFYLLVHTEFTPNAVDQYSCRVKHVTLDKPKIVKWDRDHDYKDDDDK
equine FcRn complex (equine), sequence (chain, as listed by the source, chain 1 of 2): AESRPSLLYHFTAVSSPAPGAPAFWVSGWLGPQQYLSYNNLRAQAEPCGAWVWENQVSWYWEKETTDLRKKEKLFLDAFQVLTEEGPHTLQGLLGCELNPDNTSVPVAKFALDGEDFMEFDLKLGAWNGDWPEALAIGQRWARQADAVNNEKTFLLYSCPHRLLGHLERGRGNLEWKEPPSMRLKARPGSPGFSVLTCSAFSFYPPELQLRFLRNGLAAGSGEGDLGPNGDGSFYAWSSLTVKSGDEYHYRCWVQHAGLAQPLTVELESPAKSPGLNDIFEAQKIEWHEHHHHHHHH
equine FcRn complex (equine), sequence (P30441 other isoform, or with tags, fused parts or gaps, chain 2 of 2): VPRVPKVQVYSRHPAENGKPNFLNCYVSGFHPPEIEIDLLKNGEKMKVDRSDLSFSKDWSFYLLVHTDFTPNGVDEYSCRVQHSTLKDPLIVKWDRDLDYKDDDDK

B1: Porcine T286E (antibody, part only; not given: variable domains and light chain, IgG1a, not shown: another chain or arm of the molecule)
Fc: GCEVAGPSVFIFPPKPKDTLMISQTPEVTCVVVDVSKEHAEVQFSWYVDGVEVHEAETRPKEEQFNSTYRVVSVLPIQHQDWLKGKEFKCKVNNVDLPAPITRTISKAIGQSREPQVYTLPPPAEELSRSKVTVTCLVIGFYPPDIHVEWKSNGQPEPEGNYRTTPPQQDVDGTFFLYSKLAVDKARWDHGETFECAVMHEALHNHYTQKSISKTQGK
Fold increase over wild-type KD [1]: 3.3 fold
Kd [1]: 96.1 nM

B2: Equine Q311V (antibody, part only; not given: variable domains and light chain, IgG1, not shown: another chain or arm of the molecule)
Fc: APELLGGPSVFIFPPNPKDTLMITRTPEVTCVVVDVSQENPDVKFNWYMDGVEVRTATTRPKEEQFNSTYRVVSVLRIQHVDWLSGKEFKCKVNNQALPQPIERTITKTKGRSQEPQVYVLAPHPDELSKSKVSVTCLVKDFYPPEINIEWQSNGQPELETKYSTTQAQQDSDGSYFLYSKLSVDRNRWQQGTTFTCGVMHEALHNHYTQKNVSKNPGK
Fold increase over wild-type KD [2]: 4 fold
Kd [2]: 35.7 nM

B3: Equine M428Y (antibody, part only; not given: variable domains, light chain, IgG1, not shown: another chain or arm of the molecule)
Fc: B2 Fc with V81Q, M200Y
Fold increase over wild-type KD [2]: 0.9 fold
Kd [2]: 151 nM

B4: Equine N434Y (antibody, part only; not given: variable domains and light chain, IgG1, not shown: another chain or arm of the molecule)
Fc: B2 Fc with V81Q, N206Y
Fold increase over wild-type KD [2]: 61 fold
Kd [2]: 2.35 nM

B5: Equine Y436H (antibody, part only; not given: variable domains and light chain, IgG1, not shown: another chain or arm of the molecule)
Fc: B2 Fc with V81Q, Y208H
Fold increase over wild-type KD [2]: 0.9 fold
Kd [2]: 156 nM

B6: Porcine Q309D (antibody, part only; not given: variable domains and light chain, IgG1a, not shown: another chain or arm of the molecule)
Fc: B1 Fc with E55T, Q78D
Fold increase over wild-type KD [1]: 3.4 fold
Kd [1]: 93.6 nM

B7: Porcine Q309V (antibody, part only; not given: variable domains, light chain, IgG1a, not shown: another chain or arm of the molecule)
Fc: B1 Fc with E55T, Q78V
Fold increase over wild-type KD [1]: 9.3 fold
Kd [1]: 34.1 nM

B8: Porcine wild-type (antibody, part only; not given: variable domains and light chain, IgG1a, not shown: another chain or arm of the molecule)
Fc: B1 Fc with E55T
Fold increase over wild-type KD [3]: 1 fold

B9: Porcine Q311V (antibody, part only; not given: variable domains and light chain, IgG1a, not shown: another chain or arm of the molecule)
Fc: B1 Fc with E55T, Q80V
Fold increase over wild-type KD [1]: 4.1 fold
Kd [1]: 76.4 nM

B10: Porcine A426Y (antibody, part only; not given: variable domains, light chain, IgG1a, not shown: another chain or arm of the molecule)
Fc: B1 Fc with E55T, A197Y
Fold increase over wild-type KD [1]: 3 fold
Kd [1]: 105 nM

B11: Porcine M428Y (antibody, part only; not given: variable domains and light chain, IgG1a, not shown: another chain or arm of the molecule)
Fc: B1 Fc with E55T, M199Y
Fold increase over wild-type KD [1]: 3.6 fold
Kd [1]: 86.9 nM

B12: Porcine N434Y (antibody, part only; not given: variable domains and light chain, IgG1a, not shown: another chain or arm of the molecule)
Fc: B1 Fc with E55T, N205Y
Fold increase over wild-type KD [1]: 40 fold
Kd [1]: 7.93 nM

B13: Ovine wild-type (antibody, part only; not given: variable domains and light chain, IgG1, not shown: another chain or arm of the molecule)
Fc: PELPGGPSVFIFPPKPKDTLTISGTPEVTCVVVDVGQDDPEVQFSWFVDNVEVRTARTKPREEQFNSTFRVVSALPIQHQDWTGGKEFKCKVHNEALPAPIVRTISRTKGQAREPQVYVLAPPQEELSKSTLSVTCLVTGFYPDYIAVEWQKNGQPESEDKYGTTTSQLDADGSYFLYSRLRVDKNSWQEGDTYACVVMHEALHNHYTQKSISKPPGK
Fold increase over wild-type KD [4]: 1 fold

B14: Ovine T252Y (antibody, part only; not given: variable domains and light chain, IgG1, not shown: another chain or arm of the molecule)
Fc: B13 Fc with T21Y
Fold increase over wild-type KD [5]: 11 fold
Kd [5]: 43.1 nM

B15: Ovine Q309V (antibody, part only; not given: variable domains and light chain, IgG1, not shown: another chain or arm of the molecule)
Fc: B13 Fc with Q78V
Fold increase over wild-type KD [5]: 6.3 fold
Kd [5]: 79.3 nM

B16: Ovine Q311V (antibody, part only; not given: variable domains and light chain, IgG1, not shown: another chain or arm of the molecule)
Fc: B13 Fc with Q80V
Fold increase over wild-type KD [5]: 5.4 fold
Kd [5]: 92.7 nM

B17: Porcine M252Y (antibody, part only; not given: variable domains and light chain, IgG1a, not shown: another chain or arm of the molecule)
Fc: B1 Fc with M21Y, E55T
Fold increase over wild-type KD [1]: 3.3 fold
Kd [1]: 97.2 nM

B18: Ovine M428Y (antibody, part only; not given: variable domains and light chain, IgG1, not shown: another chain or arm of the molecule)
Fc: B13 Fc with M199Y
Fold increase over wild-type KD [5]: 3 fold
Kd [5]: 166 nM

B19: Ovine N434Y (antibody, part only; not given: variable domains and light chain, IgG1, not shown: another chain or arm of the molecule)
Fc: B13 Fc with N205Y
Fold increase over wild-type KD [5]: 81 fold
Kd [5]: 6.09 nM

B20: Bovine wild-type (antibody, part only; not given: variable domains, light chain, IgG1, not shown: another chain or arm of the molecule)
Fc: PPELPGGPSVFIFPPKPKDTLTISGTPEVTCVVVDVGHDDPEVKFSWFVDNVEVNTATTKPREEQFNSTYRVVSALRIQHQDWTGGKEFKCKVHNEGLPAPIVRTISRTKGPAREPQVYVLAPPQEELSKSTVSLTCMVTSFYPDYIAVEWQRNGQPESEDKYGTTPPQLDADSSYFLYSKLRVDRNSWQEGDTYTCVVMHEALHNHYTQKSTSKSA
Fold increase over wild-type KD [6]: 1 fold
Kd [6]: 505 nM

B21: Bovine T252Y (antibody, part only; not given: variable domains and light chain, IgG1, not shown: another chain or arm of the molecule)
Fc: B20 Fc with T22Y
Fold increase over wild-type KD [6]: 7.1 fold
Kd [6]: 71.4 nM

B22: Bovine Q309V (antibody, part only; not given: variable domains, light chain, IgG1, not shown: another chain or arm of the molecule)
Fc: B20 Fc with Q79V
Fold increase over wild-type KD [6]: 3.9 fold
Kd [6]: 129 nM

B23: Bovine Q311V (antibody, part only; not given: variable domains and light chain, IgG1, not shown: another chain or arm of the molecule)
Fc: B20 Fc with Q81V
Fold increase over wild-type KD [6]: 2.8 fold

B24: Bovine N434Y (antibody, part only; not given: variable domains and light chain, IgG1, not shown: another chain or arm of the molecule)
Fc: B20 Fc with N206Y
Fold increase over wild-type KD [6]: 42 fold
Kd [6]: 11.9 nM

B25: Bovine Y436H (antibody, part only; not given: variable domains and light chain, IgG1, not shown: another chain or arm of the molecule)
Fc: B20 Fc with Y208H
Fold increase over wild-type KD [6]: 2.3 fold
Kd [6]: 224 nM

B26: Equine M252Y (antibody, part only; not given: variable domains, light chain, IgG1, not shown: another chain or arm of the molecule)
Fc: B2 Fc with M22Y, V81Q
Fold increase over wild-type KD [2]: 2 fold
Kd [2]: 71.4 nM

B27: Equine T286E (antibody, part only; not given: variable domains and light chain, IgG1, not shown: another chain or arm of the molecule)
Fc: B2 Fc with T56E, V81Q
Fold increase over wild-type KD [2]: 3 fold
Kd [2]: 48 nM

B28: Equine Q309D (antibody, part only; not given: variable domains and light chain, IgG1, not shown: another chain or arm of the molecule)
Fc: B2 Fc with Q79D, V81Q
Fold increase over wild-type KD [2]: 1 fold
Kd [2]: 144 nM

B29: Equine Q309V (antibody, part only; not given: variable domains, light chain, IgG1, not shown: another chain or arm of the molecule)
Fc: B2 Fc with Q79V, V81Q
Fold increase over wild-type KD [2]: 7.2 fold
Kd [2]: 20.2 nM
